Experimental findings from a protein production outcome set (Wang et al. 2014) are described below.

A short description of the data set: label from the status in PepcDB records.
Regarding “MRIGIMGLGRIGAFHAETLSGLPAVTSLVVTDPFTDAAKSAAERFGAEVADSPEAVLAAGVDGVVVAAATDAHPGLVLAAVEAGVPVFCEKPVARTMREGVAVLEAVRDAGVEIQIGYNRRFDAGFVAARAAVASGELGALHTVRSTTLDPAPPPPAYVAASGGIFRDCSVHDFDIIRWVTGREVVEVYATGGNRGADYIAAAGDADTTAAVLTLDDGTLAVVSNSRHNARGHDVRMELHGFRDSIAVGLEDRLPLRSVEPGTSFPAGTPHDFFMDRFAAAYRAELTAFTEVVAGRRPSPCTVADALEAGWIAEACTLSLHSHRPVTVEEVRRQS”, the protein production result is on record as “failed”.

With “MPEVIFNGPAGRLEGRYQPSKEKSAPIAIILHPHPQFGGTMNNQIVYQLFYLFQKRGFTTLRFNFRSIGRSQGEFDHGAGELSDAASALDWVQSLHPDSKSCWVAGYSFGAWIGMQLLMRRPEIEGFMSIAPQPNTYDFSFLAPCPSSGLIINGDADKVAPEKDVNGLVEKLKTQKGILITHRTLPGANHFFNGKVDELMGECEDYLDRRLNGELVPEPAAKRIR”, the protein production result is “not failed”.

For the sequence “MKAVFAKLGSDFFSTIVFVVLYFSTGNVALATIVAVLGAVGQFIYAKIKGQRLDVMAYASVALVVVLGGATLLTNDPRFVLIKPSVGHIAVGLLMLRRDWMLRYVPPIVAETIPDYVRIAGYAWAALMLLLGTGVIAAAMTGDIKVWTFYVMVIAPAFKVAAFAGQYLVFRIAIRSRRRAAVATAEPAASTPVTAEP”, the protein production result is “failed”.

“MLRVFHFYGMLRLPRSGIEQSLKGERCTVSTQIRILPENLTNKIAAGEVVERPASVVKELVENSLDAGCRDIIVEIEAGGRRLIRVTDDGSGMSREDALLSLERHATSKIASDDDLFSLCTLGFRGEALPSIASVSRFSLATRQRGAIEGTEIYAEGGRIKEVKACGMAEGTVITVRNLFFNTPARLKFMKSAETEAGHVGDLLTRLAISRPEVRFTYVNDGKTVFRALNGTMEERVAALLGRTIAGALYPLDSTVEGVTVRGLVARPDVSRSAAGHLYTFINGRFIRDRVVQHAVLQAYRNFLERGRYPVVVLFIQVPAGDVDVNVHPTKHEVRFRQQGVVHDVIQGVIEEALRPTPWLRKESQSTVSSPPPERREPATSSERVAEVRELLVNYRPSPAPSRPFFQPLPAVVPAPDQSAEEPDRPMDRGYFSRLAIIGQFHASYILCQDGSDLVIIDQHAAHERVAFERLKAQFAAGGVEGQGLLFPDTLELSHREVAELREHGEELRRIGFDLDEFGGTTWVVKGVPRLLAGKDYLRILRDTLEEFQAVGANRSVADAVEEILTRIACHSVVRGEHPLTTAQIEALFAQMDATDYSTNCPHGRPVLQRLTLAEVERMFKR”: the protein production result is “failed”.

For “MAIKAGKVLRTATAAARKFQQKQFSASSSAFPEPPPVSPSSGVGAFLGIPKIIRSESDLLVSKYIRIAQGRLTKKGDYTEEKLKKMLSGEDRVGIGETMKLLEGRNTGLVSSKKPNSGRSKK”, the protein production result is “failed”.

Take “MSCHLSYLEGTMEFMISGRNLTVSDRFREYAGEKISKIESLGDKVQRVDAKVSKETNPRQTPGELTVEVTVLGRGPVIRAEATAADKFAAFDLAYNKLLERLRRAKDRKKVHHGRHTPKAVREATATLEPASASEPLYVEASNHQESAPPVDERSPYDIENDIPAGDSPVLIRRKVFPAASLTLDDAVDNMELVGHNFYLFLDKETNAPSVVYRRSGWTYGVITLDSTCEPGEEAVEEKIHAYRSDDQAATAK”: the protein production entry was “failed”.

As to “PPHYDYAIGIRGDSMLPKYEQGDMLYIVDKGMSTYSGQLCIVVHNGNTYFKKVYTEHDGLRLVSLNKKYSDIFIGYPPAEDTYIKIYDVVGSFTPIEF”, the protein production entry is “failed”.

Turning to “MTTPVNGSVIPLISLRESRMPSLTDGAIRRALKQVEQTQKPVTLADGEGRGIGRLILFVRPMPTRVIAYWLVQQWRAGARSRKKIGAYPSMSLNQARNIFDRDFADAIQKGRSIKALGDTRAGTLGDLFDAYIAHLKSSGKKSWKEAEKGLNKVADTLGRHRPARDIEPHEIVDIIRPIYGRGTRSMADHVRGYLRAAFSWGIKSEHDYRHASPRRFGLTKNPAAGIPSEPYVPGNRWLDEEEFLRLYRWLECPDTPVHPPYTRAVRLLMLTGQRVEEIARLHIAQWDAKERIIDWSTTKNGKPHAIPVPDLAAELLESIKPNNYGWFFPSAFDPSKPVAHNTLYSFMWRQRERGVIPVVTNRDLRRTWKTLAGKAGLSKEIRDRLQNHTLQDVSSKAYDRWNYMPEKRAAMKQWNSFVRSVLTPDRLTSAA”, the protein production entry is on record as “failed”.

“MGHHHHHHSHMGKKLLVLDVDYTLFDHRSCAETGVELMRPYLHEFLTSAYEDYDIVIWSATNMKWIEAKMKELGVSTNANYKITFMLDSAAMITVHTPRRGLIDVKPLGVIWGKFSEFYSKKNTIMFDDIGRNFLMNPQNGLKIRPFMKAHLNRDKDKELLKLTQYLKEIAKLDDFLDLNHKY”: the protein production result is recorded as “failed”.

Consider “MTQRKVYAPVPVMVAGIAIIATRFLGILLLVWELGLSDLSGWIGSNAEAWDSTLVLLLSLIIVGVEIRCGFAVLAGVNWGRWGYIACQGVVVCYLLLASLSEFMPAIFHISGENHAAVLHQLLMQKIPDLLVIVLLFLPRRSKRFFLRQK”, for which the protein production result is reported as “failed”.

In the case of “MRRSFLKTIGLGVIALFLGLLNPLSAASYPPIKNTKVGLALSSHPLASEIGQKVLEEGGNAIDAAVAIGFALAVVHPAAGNIGGGGFAVIHLANGENVALDFREKAPLKATKNMFLDKQGNVVPKLSEDGYLAAGVPGTVAGMEAMLKKYGTKKLSQLIDPAIKLAENGYAISQRQAETLKEARERFLKYSSSKKYFFKKGHLDYQEGDLFVQKDLAKTLNQIKTLGAKGFYQGQVAELIEKDMKKNGGIITKEDLASYNVKWRKPVVGSYRGYKIISMSPPSSGGTHLIQILNVMENADLSALGYGASKNIHIAAEAMRQAYADRSVYMGDADFVSVPVDKLINKAYAKKIFDTIQPDTVTPSSQIKPGMGQLHEGSNTTHYSVADRWGNAVSVTYTINASYGSAASIDGAGFLLNNEMDDFSIKPGNPNLYGLVGGDANAIEANKRPLSSMSPTIVLKNNKVFLVVGSPGGSRIITTVLQVISNVIDYNMNISEAVSAPRFHMQWLPDELRIEKFGMPADVKDNLTKMGYQIVTKPVMGDVNAIQVLPKTKGSVFYGSTDPRKEF”, the protein production result was “failed”.

As for “METRANYVIVGIFTLVAILAAFGFVYWTAAIGDRGETTLLRVRIPGSASGLGRGSFVLFNGVKVGDVKRVYIDVDNPTVAIADTEIDRLTPITKSTQADIGLAGLTGQANIELKGADPKEVKLLDQAEKEGKVAEIVANPSAVTNLLQTAQNIFSRADKVLSELEGFTRDVRGPLTQTVQNVQTFSDALAKNSDGIDKFLSSVSALSEELKGVSGKLDGTLKAAEGLLNAVDRDKIKSIVANVDTVTANLKQTSQQLDGVIKNVDTAVGSVNDFAKQTQGTLAKVDGVLDGVDPAQVRAALANIQKASENANKAAADIAVVTEKFANRADDIDQTIKDAKQLAQRLNDASVRVDGILARVDTLLGSGQADGLMADARDTLKSFKQVADTLNARLGVITDNLARFSGQGLSNVEALVQDSRRSITRIEEAVTDLSRNPQRILSGGDGEVRQFDGRARR”, the protein production entry is listed as “failed”.

For the sequence “WYEDGLVCTLAYQNHRAPLVFIIAGTGASHNTPRMVKLRSALYQGGFHVISLTSPTHMDFVVNASSGLPGDPLDDARDLYRVMEMAYDAVRDTIDVSGFDLAGYSLGAFNAAFVARLDEEEKRFNFSKVLLINPPVSLYESVAALDQLLVENVPQGMEQFDAWFRSVFAEFSHVSREVGPGSLSGDFIYSAYKRFPPNEENLAALIGLSFRMSAANMIFTADVMNGGGYIVPRNARLTATSSLTRYATVSLHTRFTDYFDEWFFPNRRHREPSLTRQALLARMSLRSQEAYLRNADKVGLIHNEDDIILAPGDIDYLQGVFGGRARLFPTGGHMGNMFHPDVVSFMIDFL”, the protein production entry is given as “failed”.

On to “MKVIIIGGETTAYYLARSMLSRKYGVVIINKDRELCEEFAKKLKATIIHGDGSHKEILRDAEVSKNDVVVILTPRDEVNLFIAQLVMKDFGVKRVVSLVNDPGNMEIFKKMGITTVLNLTTLITNTVEALIFPDEFSSIIPLEQ”, for which the protein production entry is “not failed”.

For “MAKAIVSIFVVFFIFFLVISDVPEIEAQGNECLKEYGGDVGFGFCAPRIFPTICYTRCRENKGAKGGRCRWGQGSNVKCLCDFCDDTPQ”, the protein production result is reported as “not failed”.

“MILQDARIDVPYTVVSINLPEDSVRHLSNLGLKVGSRLELISKTKSSAIVMLKSSRLAFDDSILSKIDVSESQETVETLPLSELEVGQFAYIDNIFAVNEAKRRLMDMGLTRHTKIYLRKVAPLGDPIEISLRGYELTLRKSEAQMISVVKIDNQEEKLEHHHHHH”: the protein production result is “not failed”.

As for “MASRFQEASLVTSPSYPNAVAWSSENLIAVAAGHLVIIINPALPTGPRGLITISDAELYQIGRVRSQDLLTGGLLPSSLKRERSPCVRSLSWSEIGMSPNHGCLLAVCTAEGRVKLYRPPYSDFCAEWIEIVDISKMLYENLSSMNFGESKNPSTSLSKDQVVEHDHEEDERISSLKARKRRKTSANNINLHEKNYTDRASCSKQDSKAEHNVLEIEVYKQASNGQDRRSLPKALKKCSQEISPQTYVSREALLSSHSVAWSSLLRFSSESSCGNMLRFSLLAIGSKSGSVSIWKVHAPECYHIERSNVSPMVELTAIVQTHSSWVSTMSWGIFGCDSSNPQVVLVTGSCDGSVKIWMSNKEDLQNSVEVYKSSFFLLKEVVAVNPVQVSTLSFVVSNHYNAMHLAIGKGSGSFEVWKCEISTRKFEQIVSTNAHNQVVTGLAWSYDGRCLYSCSQDNYVRSWILCENAISEVPIPANTPGLSSTTDLPDDFLSCLGVALSPGNLAVALVRNFNVELLNPMYQARSQKAAVEFLWNGAQQSGESEDSTETVTEAILGFSKNEFANWESNILWSLKEFNYLNKPLVLWDMVAAMLAFKQSMPEFVELVLTKWLSVSYLGFHDDISMEDLVPKITKRFSDVPSRLLHILNVISRRVMLSELKTEEINRKLQGQRTNDEGEIDLWLKLLQESERELRERLVGLSFSAYLLAESSQGTISPPSWNWRPAGLALLQQWVEINRDIVHSQLETLSLEVKSSRTRSSNSTETALEEEKCPYCAAPVNFHSAEEAFCESSHQKKKKSKDKERCDESHKLERCCVSMQVCPPTPLWFCKCCNRMTLELAPETLFALPSFPSDLKSLPKSSFSKVASKPFCLFCGVLLQRKQPEFLLSASPV”, the protein production result is “failed”.

On to “MKIAILCASGKVGKEISKEALKRNLEPVCFVRNSSKMNEFLPQAKIVQRDLFELDSKDLIDFDIIIDAFGEWENLSLHKKHIECLSVILQGSKAKLFVVGGAGSLYMDENHTTRLMDMPDFPKEYLDIAKASAEVLEFLRNEKGFKWVYVSPSAIFSPDLPKSNHYKIIGEKFEVNANNESKISYSDYASAMIDIVLNSCYENTRIGVISL”, for which the protein production entry is listed as “failed”.

As for “MKDNYDAPESMLTGRVMYNGEALQLRGNEAVQLQLYQHGYAKHDPINVYVNQDGMYSANLFDGEYQMITKSGNGPWTSEGRDTINVTVAGNTVQDVEVTPYYLVRDAQMTLEGNKVNASFKVEKVAGGGIDRVFFMLSTTQFVNDAEHNVDRYDETDNLDAYDETGKLYTFATRDYTDNSMFQTALKRGTLFGRICIWPKGSDQGIYSKVIRLK”, the protein production result is “not failed”.

With “MATATETSKATTKTQASAAADRESLTVSRAFNAPRDLVFQAWSAAEHLKHWFCPQGFTIPECEVEFRPGGKFDLWMRSLDGNYSHWIRGHYVEIIPHSRLVLDMTVVTEAGVALFNANTSVTFETVCGGTEMSVTQRYTALDPSAGNFTRGAEEGWAQTLDRLEKEVARIAAATPARSVAHGVFTIERTYDASPELVFRALSDPVAKAQWFNGGPGYTEVKRTMDVRPGGREHLQGRWENGLVSTFDAVYFDVIPNERLVYSYEMHMGERKISVSLATFELKRAGQGTRLVMTEQGAFLDGYDDAGSREHGSGLLLDAIGEWLKAMTKR”, the protein production result was “failed”.
